Source: article PMC6628393

Target: Kv2.1 potassium channel (UniProt Q14721)
Sequence of UniProt Q14721 (Q14721 whole entry): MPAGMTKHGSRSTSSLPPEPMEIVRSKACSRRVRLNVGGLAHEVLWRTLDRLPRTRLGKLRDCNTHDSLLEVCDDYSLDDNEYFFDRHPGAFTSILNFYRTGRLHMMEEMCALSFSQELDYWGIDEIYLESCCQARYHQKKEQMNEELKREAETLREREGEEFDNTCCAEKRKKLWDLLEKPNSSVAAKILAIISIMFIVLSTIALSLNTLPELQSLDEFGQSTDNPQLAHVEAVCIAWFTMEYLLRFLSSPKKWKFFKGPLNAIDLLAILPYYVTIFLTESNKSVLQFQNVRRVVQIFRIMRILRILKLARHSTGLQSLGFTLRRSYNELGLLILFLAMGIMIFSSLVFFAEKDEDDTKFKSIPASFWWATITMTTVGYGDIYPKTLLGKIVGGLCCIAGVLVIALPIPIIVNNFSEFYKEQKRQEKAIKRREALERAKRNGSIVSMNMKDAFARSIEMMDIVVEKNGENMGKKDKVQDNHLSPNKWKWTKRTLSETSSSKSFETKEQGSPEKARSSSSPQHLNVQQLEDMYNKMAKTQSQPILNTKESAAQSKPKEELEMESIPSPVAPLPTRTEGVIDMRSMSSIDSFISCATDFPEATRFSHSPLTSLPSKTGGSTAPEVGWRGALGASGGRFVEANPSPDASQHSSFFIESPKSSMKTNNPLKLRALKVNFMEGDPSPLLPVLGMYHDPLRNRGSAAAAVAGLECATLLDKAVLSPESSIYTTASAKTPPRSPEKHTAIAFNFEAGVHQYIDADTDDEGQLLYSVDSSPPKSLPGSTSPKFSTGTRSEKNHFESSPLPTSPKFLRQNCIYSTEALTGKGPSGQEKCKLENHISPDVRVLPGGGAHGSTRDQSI

MiDCA1, a phospholipase A2 (PLA2) neurotoxin from Micrurus dumerilii carinicauda coral snake venom (enzyme)
inhibition of Kv2.1-mediated current in Xenopus oocytes by 1 μM MiDCA1 (reversible on washout): 55%
